Results published in patent US20250353921A1 (ASTRIA THERAPEUTICS, published 2025).
Several values for one entry are separate records, joined by “and”; a condition that tells them apart may be missing. Equal values may be shown once.

T1: human OX40 (TNFRSF4, CD134) on cells (human, UniProt P43489 29-277)
T1 construct: also called OX40 on HPB-ALL cells; Jurkat-NFκB-OX40 cells
T1 sequence: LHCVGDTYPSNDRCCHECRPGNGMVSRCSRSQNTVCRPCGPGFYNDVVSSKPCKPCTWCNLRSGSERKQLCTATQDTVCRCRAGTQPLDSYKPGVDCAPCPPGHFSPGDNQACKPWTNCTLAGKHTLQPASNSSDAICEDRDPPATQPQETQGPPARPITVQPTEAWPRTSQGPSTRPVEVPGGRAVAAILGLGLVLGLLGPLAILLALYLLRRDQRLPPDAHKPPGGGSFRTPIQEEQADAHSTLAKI

T2: human OX40-CRD-avi-his (human, UniProt P43489 29-170, limits assumed)
T2 construct: Only the CRD region of the ECD was used
T2 sequence: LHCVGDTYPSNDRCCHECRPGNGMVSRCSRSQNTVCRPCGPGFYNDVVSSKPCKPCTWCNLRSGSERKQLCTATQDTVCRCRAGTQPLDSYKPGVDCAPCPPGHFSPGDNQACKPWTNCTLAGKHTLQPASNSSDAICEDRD

T3: Human OX40 (Acro Biosystems, catalog NO: OXO-H5224) protein (human, UniProt P43489 29-216)
T3 construct: Bought protein; also called recombinant human OX40 receptor; recombinant human OX40 protein
T3 sequence: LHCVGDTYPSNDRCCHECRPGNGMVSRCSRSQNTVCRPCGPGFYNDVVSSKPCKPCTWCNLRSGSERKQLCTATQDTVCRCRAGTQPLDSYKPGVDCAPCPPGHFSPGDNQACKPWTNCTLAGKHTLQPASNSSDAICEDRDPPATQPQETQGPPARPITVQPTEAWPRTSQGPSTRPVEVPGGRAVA

T4: Human (hu) OX40 protein (Example 5 cross reactivity) (human, UniProt P43489 29-216, limits assumed)
T4 construct: whole entry named
T4 sequence: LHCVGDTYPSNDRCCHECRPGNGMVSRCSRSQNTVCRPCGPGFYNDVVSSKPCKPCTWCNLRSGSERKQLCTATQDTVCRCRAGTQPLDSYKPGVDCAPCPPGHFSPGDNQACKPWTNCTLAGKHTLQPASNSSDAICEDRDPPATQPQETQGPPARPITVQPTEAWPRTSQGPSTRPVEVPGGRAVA

B1: MAB1 IgG1 (antibody)
heavy: not shown
light: EIVLTQSPATLSLSPGERATLSCRASSSVSYMHWYQQKPGQAPRPWIYATSNRATGIPARFSGSGSGTDYTLTISSLEPEDFAVYYCQQFGAWPWTFGQGTKVEIKRTVAAPSVFIFPPSDEQLKSGTASVVCLLNNFYPREAKVQWKVDNALQSGNSQESVTEQDSKDSTYSLSSTLTLSKADYEKHKVYACEVTHQGLSSPVTKSFNRGEC
notes: Human IgG1, kappa
B2: GBR 830 (telazorlimab) (antibody, human IgG1, kappa)
heavy: not shown
light: EIVLTQSPATLSLSPGERATLSCRASSSVSYMHWYQQKPGQAPRPWIYATSNRATGIPARFSGSGSGTDYTLTISSLEPEDFAVYYCQQWSSNPWTFGQGTKVEIKRTVAAPSVFIFPPSDEQLKSGTASVVCLLNNFYPREAKVQWKVDNALQSGNSQESVTEQDSKDSTYSLSSTLTLSKADYEKHKVYACEVTHQGLSSPVTKSFNRGEC
notes: IgG1; also called Antibody 830; ISB830
B3: MAB10 (antibody, human IgG1, kappa)
heavy: QVTLKESGPALVKPTQTLTLTCSFSGFSLSTSGMGVGWIRQPPGKALEWIAHIWWDDDKYYNTALKTRLTISKDTSKNQVVLTMTNMDPVDTATYYCARIDWDGFAYWGQGTLVTVSSASTKGPSVFPLAPSSKSTSGGTAALGCLVKDYFPEPVTVSWNSGALTSGVHTFPAVLQSSGLYSLSSVVTVPSSSLGTQTYICNVNHKPSNTKVDKKVEPKSCDKTHTCPPCPAPELLGGPSVFLFPPKPKDTLYITREPEVTCVVVDVSHEDPEVKFNWYVDGVEVHNAKTKPREEQYNSTYRVVSVLTVLHQDWLNGKEYKCKVSNKALPAPIEKTISKAKGQPREPQVYTLPPSRDELTKNQVSLTCLVKGFYPSDIAVEWESNGQPENNYKTTPPVLDSDGSFFLYSKLTVDKSRWQQGNVFSCSVMHEALHNHYTQKSLSLSPGK
light: EIVLTQSPATLSLSPGERATLSCRASSSVSYMHWYQQKPGQAPRPWIYATSNRATGIPARFSGSGSGTDYTLTISSLEPEDFAVYYCQQFGAWPWTFGQGTKVEIKRTVAAPSVFIFPPSDEQLKSGTASVVCLLNNFYPREAKVQWKVDNALQSGNSQESVTEQDSKDSTYSLSSTLTLSKADYEKHKVYACEVTHQGLSSPVTKSFNRGEC
notes: MAB1 with M252Y, S254T and T256E (EU numbering) in the IgG1 Fc; also called MAB1 Heavy Chain + YTE

Experiments:
[1] = molecular target: T1, human OX40 (TNFRSF4, CD134) on cells; assay: flow cytometry on Jurkat-NF-κB-OX40 cells, detection with PE anti-human IgG Fc, occupancy in % of the saturating dose; in the presence of 0.07 µg/ml OX40L; time point not stated on the sheet
[2] = molecular target: T1, human OX40 (TNFRSF4, CD134) on cells; assay: cell-based or functional assay
[3] = molecular target: T1, human OX40 (TNFRSF4, CD134) on cells; assay: flow cytometry on Jurkat-NF-κB-OX40 cells, detection with PE anti-human IgG Fc, occupancy in % of the saturating dose; in the presence of 0.3 µg/ml OX40L; time point not stated on the sheet
[4] = molecular target: T1, human OX40 (TNFRSF4, CD134) on cells; assay: cell-based or functional assay; remark: listed apart in the source
[5] = molecular target: T1, human OX40 (TNFRSF4, CD134) on cells; assay: flow cytometry on Jurkat-NFκB (OX40) cells, detection with anti-human IgG Fc-AF647
[6] = molecular target: T1, human OX40 (TNFRSF4, CD134) on cells; assay: cell-based or functional assay; remark: listed apart in the source
[7] = molecular target: T1, human OX40 (TNFRSF4, CD134) on cells; assay: flow cytometry on OX40-expressing HPB-ALL cells; cells pre-incubated with cold MAB1, washed, then stained with a single dose of the competitor GBR 830-AF647
Protocol: (§1) Plates were incubated for 30 minutes on ice and in the dark. After a washing step, cells were resuspended in 200 μL FACS buffer and immediately acquired using flow cytometer.

cynomolgus OX40-ECD-his = molecular target: T5, cynomolgus OX40-ECD-his (cynomolgus); assay: SPR Biacore T200, IgG captured by anti-human antibody, antigen as analyte, 1:1 Langmuir
T5 construct: extracellular domain; also called Cyno OX40
Protocol: (§2) The binding kinetics were measured on a Biacore T200 instrument at RT and analyzed with the Biacore T200 Evaluation Software (v3.0). Analyzed data were exported using the Biacore T200 Kinetics Summary software (v3.0). […] Experimental data were processed using a 1:1 Langmuir model with global Rmax.

human OX40-CRD-avi-his [8] = molecular target: T2, human OX40-CRD-avi-his; assay: as above
Protocol: as §2

[9] = molecular target: T1, human OX40 (TNFRSF4, CD134) on cells; assay: cell-based or functional assay; remark: listed apart in the source
[10] = molecular target: T3, Human OX40 (Acro Biosystems, catalog …); assay: SPR Biacore 8K+
Protocol: Measurements were performed on a Biacore 8K+ instrument (Cytiva Life Sciences) the Biacore 8K+ Control Software and analyzed with the Biacore Insight Evaluation Software (v3.0). […] After each binding event, baseline levels were restored using a regeneration solution on both flow-paths. HBS-EP+pH 7.4 solution were used as running buffer. Data was analyzed using the SCK evaluation method of the Biacore Insight Evaluation Software and kinetic parameters were determined using the 1:1 binding fitting model.

[11] = molecular target: T1, human OX40 (TNFRSF4, CD134) on cells; assay: cell-based or functional assay; remark: listed apart in the source
[12] = molecular target: T1, human OX40 (TNFRSF4, CD134) on cells; assay: cell-based or functional assay; remark: listed apart in the source
[13] = molecular target: T1, human OX40 (TNFRSF4, CD134) on cells; assay: flow cytometry on Jurkat-NF-κB-OX40 cells, detection with PE anti-human IgG Fc, occupancy in % of the saturating dose; in the presence of 5 µg/ml OX40L; time point not stated on the sheet
human OX40-CRD-avi-his [14] = molecular target: T2, human OX40-CRD-avi-his; assay: SPR, affinity for the extracellular domain (ECD) of human OX40; lower end of the range
Protocol: as §2

[15] = molecular target: T1, human OX40 (TNFRSF4, CD134) on cells; assay: flow cytometry on OX40-expressing HPB-ALL cells; cells pre-incubated with cold GBR 830, washed, then stained with a single dose of the competitor MAB1-AF647
Protocol: as §1

[16] = molecular target: T4, Human (hu) OX40 protein (Example 5 …); assay: SPR Biacore 8K+, single cycle kinetics, MAB10 captured by anti-human Fc, OX40 analyte
Protocol: (§3) Measurements were performed on a Biacore 8K+ instrument using the Biacore 8K+ Control Software and analyzed with the Biacore Insight Evaluation Software (v3.0). Briefly, a goat anti-human IgG (Fc specific) antibody was immobilized to approximately 11,000-14,000 resonance units (RU) on a Series S CM5 Sensor Chip using an amine coupling kit in both flow cells.
(§4) After each binding event, baseline levels were restored using 10 mM Glycine-HCl pH 1.5 as regeneration solution on both flow-paths. HBS-EP+pH 7.4 solution was used as running buffer. Data were analyzed using the SCK evaluation method of the Biacore Insight Evaluation Software and kinetic parameters were determined using the 1:1 binding fitting model. […] Interactions resulting in a response of less than 10 RU were considered as no binding (NB).
(§5) Each measurement represents the mean of three identical replicate conditions.

[17] = molecular target: cynomolgus monkey (cy) OX40 protein (Example 5) (cynomolgus monkey); assay: as above
Protocol: as §3, §4, §5

rabbit (rb) OX40 protein = molecular target: T6, rabbit (rb) OX40 protein (rabbit); assay: as above
T6 construct: also called Rabbit OX40
Protocol: as §3, §4, §5

Row | Binder | EC50 (read off the curve) [1] [nM] | ADCC EC50, in vitro differentiated Tregs [2] | EC50 (read off the curve) [3] [nM] | ADCC EC50, activated T cells [4] | EC50 (read off the curve) [5] [µg/mL] | average proliferation index (Av), coated T cell agonism assay [6] | Kd (cynomolgus OX40-ECD-his) [nM] | Kd (human OX40-CRD-avi-his [8]) [nM] | koff (human OX40-CRD-avi-his [8]) [s⁻¹] | kon (human OX40-CRD-avi-his [8]) [M⁻¹ s⁻¹] | Fold diff to MAB10, maximum ADCC, regulatory T cells [9] [fold] | Maximum killing (%), ADCC, regulatory T cells [9] [%] | fold increase in binding affinity against GBR830 [10] [fold] | EC50, inhibition of T cell proliferation [11] | EC50 (read off the curve) [13] [nM] | also measured
1 | B1 | ~0.2 | 0.089 nM and 0.015 µg/mL | ~0.2 | 0.026 nM and 0.004 ug/ml | ~0.09 | 0.97 | 557 | 6 | 0.00163 | 274000 | 2.27 | 61.9 | 8 | 0.17 nM and 0.24 ug/ml | ~0.4 | Fold Change to GBR 830, ADCC EC50, Tregs [2]: 74 fold; Fold Change to GBR 830, ADCC EC50, activated T cells [4]: 3.25 fold; IC50 (read off the curve) [7]: ~0.02 µg/mL; koff (cynomolgus OX40-ECD-his): 0.0405 s⁻¹; kon (cynomolgus OX40-ECD-his): 72700 M⁻¹ s⁻¹; Fold change to GBR 830, proliferation EC50 [11]: 33 fold; fold decrease in ADCC of activated T cells against KHK4083 [12]: 3 fold
2 | B2 | ~0.5 | 0.833 nM and 0.121 µg/mL | ~0.7 | 0.078 nM and 0.13 ug/ml | ~0.3 | 0.98 | 3040 | 80.4 | 0.00654 | 81300 | 1.61 | 44.1 | – | 5.67 nM and 0.833 ug/ml | – | Kd (human OX40-CRD-avi-his [14]): 80 nM; IC50 (read off the curve) [15]: ~0.2 µg/mL
3 | B3 | ~0.3 | – | ~0.4 | – | – | – | – | – | – | – | – | 27.3 | 8 | – | ~0.7 | Kd [16]: 6.7 nM; koff [16]: 0.0021 s⁻¹; kon [16]: 300000 M⁻¹ s⁻¹; Kd [17]: 268 nM; koff [17]: 0.052 s⁻¹; kon [17]: 200000 M⁻¹ s⁻¹; Kd (rabbit (rb) OX40 protein): 3300 nM; koff (rabbit (rb) OX40 protein): 0.03 s⁻¹; kon (rabbit (rb) OX40 protein): 9000 M⁻¹ s⁻¹; EC50 (inhibition) of NFκB signaling, Jurkat-NFκB-OX40 cells, 0.07 µg/mL OX40L [12]: 0.79 nM; EC50 (inhibition) of NFκB signaling, Jurkat-NFκB-OX40 cells, 5 µg/mL OX40L [12]: 4.59 nM
